Patent US20160075733A1

Target: low density lipoprotein receptor (LDLR) expressed on HEK293 cells transfected with LDLR modified mRNA (mRNA SEQ ID NO: 21463) (human) (UniProt P01130)
Assay: Flow cytometry (FACS): increasing amounts of BODIPY-LDL on HEK293 cells transfected with LDLR mRNA, 1.0 h at 37 C

Sequence of low density lipoprotein receptor (LDLR) expressed on HEK293 cells transfected with LDLR modified mRNA (mRNA SEQ ID NO: 21463) (human) (P01130 22-860): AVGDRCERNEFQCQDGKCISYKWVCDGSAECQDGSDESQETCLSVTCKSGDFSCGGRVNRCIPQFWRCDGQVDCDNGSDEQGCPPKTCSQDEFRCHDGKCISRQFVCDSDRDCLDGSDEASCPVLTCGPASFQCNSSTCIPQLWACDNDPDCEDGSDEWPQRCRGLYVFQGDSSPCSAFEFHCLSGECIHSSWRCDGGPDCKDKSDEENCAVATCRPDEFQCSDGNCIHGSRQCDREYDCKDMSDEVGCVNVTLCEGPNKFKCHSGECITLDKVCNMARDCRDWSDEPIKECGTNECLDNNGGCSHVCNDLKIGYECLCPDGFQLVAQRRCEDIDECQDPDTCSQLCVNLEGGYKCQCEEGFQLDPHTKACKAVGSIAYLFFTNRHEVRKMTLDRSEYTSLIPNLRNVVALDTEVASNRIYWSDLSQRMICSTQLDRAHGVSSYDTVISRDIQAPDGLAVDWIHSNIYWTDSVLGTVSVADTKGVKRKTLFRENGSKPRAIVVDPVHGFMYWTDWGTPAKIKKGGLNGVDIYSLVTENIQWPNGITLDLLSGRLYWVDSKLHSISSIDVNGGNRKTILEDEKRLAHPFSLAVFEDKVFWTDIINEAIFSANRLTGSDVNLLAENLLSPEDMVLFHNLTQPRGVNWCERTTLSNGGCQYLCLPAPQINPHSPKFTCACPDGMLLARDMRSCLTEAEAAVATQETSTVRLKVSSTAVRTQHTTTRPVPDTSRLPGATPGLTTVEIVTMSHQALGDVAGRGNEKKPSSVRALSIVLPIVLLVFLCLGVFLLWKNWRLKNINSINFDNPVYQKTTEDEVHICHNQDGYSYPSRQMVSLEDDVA

BODIPY-labeled LDL (low density lipoprotein) (from UniProt P04114 28-4563) (ligand)
Kd: 0.06 µg/mL
